B1: ESRRA (parent)
chain: LGVAQRSLPLQDELAFAEDLVLDE

Variants of: B1
Assay: protein stability index of a GFP-peptide fusion (GPS, HEK-293T) (PSI 1-6); higher = more stable
Conditions: c terminus: a fixed tail appended
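Note: lentivirally expressed fusions sorted by FACS into six bins by GFP to DsRed ratio, PSI derived from sequencing read proportions per bin multiplied by bin number.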

Protein stability index, by site and new letter:
S7: P 3.14; K 3.13; L 2.58; Q 3.18; N 2.46; M 2.84; F 2.32; D 3.25; Y 2.37; E 2.57; H 2.29; T 3.34; V 2.94; R 2.52; G 2.79; C 2.4; A 3.38; I 2.98; W 1.78
A17: T 3.8; W 2.02; M 4.88; F 4.19; N 5.35; K 5.25; V 4.77; I 3.96; P 5.19; E 5.09; D 4.99; R 4.83; G 4.76; Y 3.39; C 4.9; Q 5.4; H 4.95; S 4.49; L 4.3
Q5: H 2.71; C 1.76; E 3.16; L 2.07; I 2.17; R 1.74; Y 1.97; V 2.19; M 2.91; K 2.39; D 2.77; A 2.51; P 3.39; S 4.29; T 2.39; W 2.07; G 2.26; N 2.63; F 1.87
E13: T 3.92; L 2.5; M 3.16; K 4.95; H 4.44; Y 3.5; F 3.12; G 4.81; N 5.15; V 2.64; W 3.24; D 2.5; Q 2.99; P 4.71; S 4.45; R 4.62; I 2.42; A 1.75; C 3.38
A4: P 3.1; L 2.42; Q 3.33; T 2.43; E 3.45; F 2.23; S 2.81; W 2.3; R 1.86; G 2.41; K 2.58; C 2.02; N 2.94; V 2.39; Y 2.1; D 2.84; H 2.21; I 1.59; M 2.58
G2: F 1.87; L 2.21; A 3.14; M 2.36; I 1.89; N 3.08; Q 2.98; K 1.98; Y 1.89; P 3.92; T 2.91; V 2.34; E 3.17; R 1.93; D 3.02; W 1.79; S 2.63; H 2.78; C 2.69
Q11: C 3.94; A 3.11; D 4.92; T 4.57; L 3.3; H 3.21; S 4.37; I 3.35; V 3.14; Y 3.12; N 4.12; K 2; F 4; W 2.71; M 3.65; E 4.87; R 2.94; G 3.38; P 4.66
L14: H 5.43; I 5.15; E 5.5; D 5.68; Y 4.81; Q 5.27; G 5.46; T 5.5; N 5.42; C 5.43; K 5.15; A 5.24; V 4.92; F 5.55; P 5.38; M 2.13; S 5.66; W 4.37; R 5.33
P9: M 3.53; H 3.69; S 3.49; C 4.38; D 3.17; K 3.07; E 3.45; I 2.85; W 3.21; A 4.37; G 2.64; Q 4.66; L 3.89; F 3.54; Y 3.66; R 3.95; T 4.04; V 4.05; N 4.18
A15: T 3.26; W 3.22; Y 4.29; E 4.74; C 3.93; S 3.68; P 5.28; Q 3.65; G 4.74; H 4.39; K 2.3; V 4.41; M 3.49; L 3.81; D 4.77; R 1.82; F 4.42; I 4.41; N 3.85
D12: Y 1.8; L 1.88; Q 1.7; R 1.95; I 1.74; S 2.01; C 1.92; E 2.3; F 1.46; G 3.59; P 4.59; A 3.13; T 1.86; K 2.98; M 2.37; N 3.19; W 2.04; H 2.17; V 2.22
L1: G 3.19; P 3.63; T 3.5; E 4.04; H 2.98; K 2.34; D 4.27; A 2.99; I 2.2; S 3.75; Q 3.21; N 2.58; Y 2.79; F 2.81; V 2.8; M 2.63; C 2.57; W 1.74; R 2.18
E18: K 4.58; D 5.17; L 2.89; M 3.84; G 5; H 4.6; N 4.9; A 4.25; I 2.56; C 4.09; F 3.3
F16: C 3.86; G 4.64; H 3.46; E 3.61; I 2.34; V 4.09; L 2.96; Y 2.93; W 2.45; R 3.03; A 3.16; K 3.43; M 2.81; T 5.04; S 4.66; Q 2.68; P 5.83; N 3.63; D 3.47
V3: R 2.58; K 2.39; G 3.15; E 4.36; H 2.76; F 2.31; D 3.69; L 2.61; N 3.1; Q 2.84; T 2.92; A 2.92; P 2.73; Y 2.16; I 2.21; S 2.64; M 2.12; C 2.86; W 2.82
L10: T 5.47; A 5.58; N 5.12; M 3.54; Y 5.12; F 4.97; W 4.84; I 4.7; C 5.41; Q 5.45; K 5.21; E 4.36; G 5.43; V 4.64; P 4.33; S 5.19; H 5.26; R 5.44; D 5.42
R6: N 2.64; A 3.14; Q 3.81; K 2.92; G 2.56; P 3.62; M 2.35; L 2.34; T 3.23; I 2.37; E 3.27; C 1.84; D 4.23; V 3.09; H 2.55; S 2.98; W 2.17; F 2.26; Y 2.16
L8: K 4.38; F 2.33; I 3.03; M 3.25; E 5; T 3.24; D 4.91; P 3.71; G 3.74; A 3.17; S 2.83; H 2.88; W 3.63; R 2.02; V 3.53; C 3.2; Y 1.86; N 2.91; Q 3.72

Reference: the supplement of paper PMC10567573
